± gives the standard error. This sample holds only a part of the variants without activity.
B1: glmS ribozyme (parent)
chain: AUAAAAGCGCCAGAACUACAGAAAUGUAGUUGACGAGGAGGAGGUUUAUCGAAUUUUCGGCGGAUGCCUCCAAA

Assays:
Details in all cases: with glucosamine-6-phosphate
glucosamine-6-phosphate [1] = variants of: B1; experiment: self-cleavage kobs at 160 uM GlcN6P; higher = faster cleavage; RNA array
Method in brief: (§1)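 Ribozyme variants carrying barcodes were transcribed in situ on sequenced MiSeq chips by E. coli RNA polymerase and tracked at 37 °C with a hybridised Cy3 probe. They were exposed to 40 μM to 10 mM glucosamine-6-phosphate in HEPES/KCl/Mg(OAc)2 buffer. kobs came from exponential decay fits of normalised per-tile medians, and kcat and KM from weighted Michaelis–Menten fits.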

glucosamine-6-phosphate [2] = variants of: B1; experiment: self-cleavage kobs at 10000 uM GlcN6P; higher = faster cleavage; RNA array
Method in brief: as §1

glucosamine-6-phosphate [3] = variants of: B1; experiment: self-cleavage kobs at 640 uM GlcN6P; higher = faster cleavage; RNA array
Method in brief: as §1

glucosamine-6-phosphate [4] = variants of: B1; experiment: self-cleavage kobs at 2500 uM GlcN6P; higher = faster cleavage; RNA array
Method in brief: as §1

Variant | self-cleavage kobs at 160 uM GlcN6P (glucosamine-6-phosphate [1]) [s⁻¹] | self-cleavage kobs at 10000 uM GlcN6P (glucosamine-6-phosphate [2]) [s⁻¹] | self-cleavage kobs at 640 uM GlcN6P (glucosamine-6-phosphate [3]) [s⁻¹] | self-cleavage kobs at 2500 uM GlcN6P (glucosamine-6-phosphate [4]) [s⁻¹]
G29U U31A U56A C67A | 2.97e-05 ± 1.5e-05 | 0.00027 ± 5.8e-05 | – | –
C16U A64G U65A C70U | 8.56e-05 ± 2.7e-05 | – | 0.00104 ± 0.00025 | 0.000964 ± 0.00024
C16U G32U C70A | < 1e-05 | – | – | –
U30C G35A A39C G40C C68A | < 1e-05 | – | < 1e-05 | –
G29A G41U A53C C58A | < 1e-05 | – | < 1e-05 | < 1e-05
C16A G59U C68G | 0.000107 ± 3e-05 | – | – | –
A15G U31A G35U C67G | < 1e-05 | – | < 1e-05 | < 1e-05
C16A U54A C67A | 4.32e-05 ± 1.9e-05 | – | 6.57e-05 ± 2.8e-05 | 0.000181 ± 4.8e-05
U30A A39C U55C | 4.87e-05 ± 1.3e-05 | – | 0.00025 ± 4.5e-05 | 0.000864 ± 0.00021
A14U G43A G63U C68U | < 1e-05 | – | – | < 1e-05
G26U U54A | 0.000887 ± 0.00025 | 0.0333 ± 0.0093 | 0.00635 ± 0.002 | 0.00265 ± 0.0013
A15U U55G A64G | 0.000233 ± 5.2e-05 | – | – | –
U30C G35U G40U A42G U47C | < 1e-05 | – | < 1e-05 | –
A15U A42U G51A C67U | < 1e-05 | < 1e-05 | < 1e-05 | –
G29U G32A G37U G66A | < 1e-05 | – | < 1e-05 | < 1e-05
A23C A52G U69A | 6.42e-05 ± 2.4e-05 | – | 9.59e-05 ± 2.5e-05 | –
U30C C50U U56C | < 1e-05 | – | < 1e-05 | –
C16G G43A | < 1e-05 | – | < 1e-05 | –
C16A C34G U49A C50A | < 1e-05 | – | – | –
C16U U65A U69A | 3.44e-05 ± 1.7e-05 | 2.63e-05 ± 1.2e-05 | 0.000105 ± 2.4e-05 | 4.97e-05 ± 1.7e-05
A15C A39G U56G C61G | < 1e-05 | – | < 1e-05 | < 1e-05
A15U U30G U46G C67G | 5.03e-05 ± 1.7e-05 | – | 6.26e-05 ± 1.3e-05 | 0.000146 ± 2.2e-05
C16A G35C U47G | < 1e-05 | – | – | < 1e-05
G29C G41U G63C C68A | < 1e-05 | – | < 1e-05 | < 1e-05
C16G A42G A53G C67G | 0.000151 ± 3.4e-05 | – | 0.000268 ± 5.9e-05 | 0.000323 ± 8.1e-05
G29U U30G A39U | 8.86e-05 ± 2.1e-05 | – | – | 0.0013 ± 0.00029
C16U C58G C68G | 0.000169 ± 4.4e-05 | – | 0.000132 ± 3.4e-05 | 7.79e-05 ± 1.5e-05

Variant | self-cleavage kobs at 160 uM GlcN6P (glucosamine-6-phosphate [1]) [s⁻¹] | self-cleavage kobs at 10000 uM GlcN6P (glucosamine-6-phosphate [2]) [s⁻¹] | self-cleavage kobs at 640 uM GlcN6P (glucosamine-6-phosphate [3]) [s⁻¹] | self-cleavage kobs at 2500 uM GlcN6P (glucosamine-6-phosphate [4]) [s⁻¹]
G29C A48C G62U | < 1e-05 | – | < 1e-05 | < 1e-05
A15G G63A | < 1e-05 | < 1e-05 | < 1e-05 | < 1e-05
A14G C16U U46C | 0.000248 ± 7.7e-05 | – | – | –
G29A U46A A53U U56C | < 1e-05 | – | < 1e-05 | –
A15U G60U C61U | < 1e-05 | – | – | –
C16U U31C C68U | 6.38e-05 ± 2.3e-05 | – | 0.000149 ± 3.2e-05 | 0.00018 ± 4e-05
A15U C34A A64G | < 1e-05 | – | – | < 1e-05
G29U C34G G38U G44U | < 1e-05 | – | < 1e-05 | –
A15U G38C G43C G51U | < 1e-05 | < 1e-05 | < 1e-05 | –
G29A G60A | < 1e-05 | – | < 1e-05 | –
U30A U54A C67U C68A | 3.56e-05 ± 1.7e-05 | – | – | 4.46e-05 ± 2.1e-05
G29C G32C G37U U45G | < 1e-05 | – | < 1e-05 | < 1e-05
G26A C70A | 0.000106 ± 2.6e-05 | – | – | –
U30A U31C G60A C71A | < 1e-05 | – | – | –
C16G G41U U54A | < 1e-05 | – | – | –
G29A A36U U55G | < 1e-05 | – | < 1e-05 | –
G29U U49C C50G C70A | 5.5e-05 ± 2.2e-05 | – | 0.000125 ± 5.5e-05 | –
A14G C61G | < 1e-05 | – | – | –
A15U G37U | < 1e-05 | < 1e-05 | – | –
A15G G63A U69G | 4.54e-05 ± 2e-05 | – | 0.000141 ± 4.8e-05 | –
A15C C50G | 0.000107 ± 3.2e-05 | – | – | 0.000205 ± 5.8e-05
A14U C34A G60A C61A | < 1e-05 | < 1e-05 | – | –
A14U C50U G51U | < 1e-05 | < 1e-05 | < 1e-05 | < 1e-05
U30A G51U | < 1e-05 | < 1e-05 | < 1e-05 | < 1e-05
G29C U56G G66C | < 1e-05 | – | < 1e-05 | –
G29U A48C G59A | < 1e-05 | < 1e-05 | < 1e-05 | < 1e-05

— the supplement of paper PMC7125110
